Read-outs that look alike come from different tables or passages of the source. Where no end group is shown, it is not given here.

Experimental findings from US20230357429A1 (JANUX THERAPEUTICS, published 2023) are described below.

Assay [1] addresses T1, TBD-17 (HC S104A).
T1 construct: Fab; also called HC S104A mutant
Nature of the assay: competition ELISA, peptide vs Fab binding to captured biotin-TROP2. A general note: An ELISA detects its analyte on a solid surface through an enzyme-linked reagent.

Assay [2] concerns the target T2, TBD-6 (LC I93A).
T2 construct: Fab; also called LC I93A mutant
The assay is described as above.

Assay [3] concerns the target T3, TBD-21 (HC F108A).
T3 construct: Fab; also called HC F108A mutant
Described as above.

The target in assay [4] is T4, TBD-11 (HC R98A).
T4 construct: Fab; also called HC R98A mutant
The description is as above.

The target in assay [5] is T5, TBD-22 (HC D109A).
T5 construct: Fab; also called HC D109A mutant
The assay is described as above.

The target in assay [6] is T6, TBD-1 wt.
T6 construct: Fab; the heavy chain entry is VH-CH1; also called wild-type anti-TROP2 Fab (hRS7); TROP2 Fab
The assay is described as above.

Assay [7] addresses T7, TBD-17 (HC S104A).
T7 construct: anti-TROP2 Fab, CDR3 HC alanine mutant
The experiment in a line: competition ELISA, Fab on captured TROP2.

The target in assay [8] is T8, TBD-11 (HC R98A).
T8 construct: anti-TROP2 Fab, CDR3 HC alanine mutant
Nature of the assay: competition ELISA, Fab on captured TROP2.

The target in assay [9] is T9, TBD-6 (LC I93A).
T9 construct: anti-TROP2 Fab, CDR3 LC alanine mutant
Nature of the assay: competition ELISA, Fab on captured TROP2.

The target in assay [10] is T10, TBD-21 (HC F108A).
T10 construct: anti-TROP2 Fab, CDR3 HC alanine mutant
Nature of the assay: competition ELISA, Fab on captured TROP2.

The target in assay [11] is T11, TBD-22 (HC D109A).
T11 construct: anti-TROP2 Fab, CDR3 HC alanine mutant
The experiment in a line: competition ELISA, Fab on captured TROP2.

The target in assay [12] is T12, TBD-1 wt (anti-TROP2 Fab, hRS7).
T12 construct: non-mutated Fab
Nature of the assay: competition ELISA, Fab on captured TROP2.

Assay [13] addresses T1, TBD-17 (HC S104A). Nature of the assay: competition ELISA, peptide vs Fab binding to captured biotin-TROP2. The source holds these as a separate data set.
The target of assay [14] is T2, TBD-6 (LC I93A). The description is as above. This is another data set of the same source.
The target in assay [15] is T3, TBD-21 (HC F108A). The assay is described as above. This is another data set of the same source.
In assay [16] the target is T4, TBD-11 (HC R98A). Described as above. This is another data set of the same source.
The target of assay [17] is T6, TBD-1 wt. The description is as above. The source holds these as a separate data set.
Assay [18] deals with T5, TBD-22 (HC D109A). Described as above. The source holds these as a separate data set.

For IDFCLIYNWPVCDT (cysteine pairing not given here; also: biotinylated, site not given here) [Peptide-6], the IC50 was found to be 3090 nM with TBD-17 (HC S104A) [1]; 1860 nM with TBD-6 (LC I93A) [2]; 7940 nM with TBD-21 (HC F108A) [3]; 8840 nM with TBD-11 (HC R98A) [4]; 90 nM in the assay with TBD-22 (HC D109A) [5].

Turning to IDFCLLYDWPICGR (cysteine pairing not given here; also: biotinylated (site not given here)) [Peptide-17], the IC50 with TBD-17 (HC S104A) [1] was 2070 nM; in the assay with TBD-6 (LC I93A) [2], 760 nM; in the assay with TBD-21 (HC F108A) [3], 2940 nM; with TBD-11 (HC R98A) [4] it was 1950 nM; with TBD-1 wt [6], 430 nM; with TBD-22 (HC D109A) [5] it was 70 nM.

Turning to VDFCYQYGWPICSRV (mask peptide for the TROP2 Fab) [Peptide-56], the concentration for half-maximal inhibition (IC50) in the assay with TBD-17 (HC S104A) [7] was determined as 24100 nM; with TBD-11 (HC R98A) [8], 21000 nM; with TBD-6 (LC I93A) [9] it was 5620 nM; with TBD-21 (HC F108A) [10], 106000 nM; with TBD-22 (HC D109A) [11], 3030 nM; in [12] it was 10100 nM.

VDFCNLYHWPICAI (mask peptide for the TROP2 Fab) [Peptide-60]: the IC50 turned out to be 2090 nM in the assay with TBD-17 (HC S104A) [7]; 2560 nM with TBD-11 (HC R98A) [8]; 670 nM with TBD-6 (LC I93A) [9]; 5450 nM in the assay with TBD-21 (HC F108A) [10]; 160 nM with TBD-22 (HC D109A) [11]; 470 nM in [12].

Regarding VDFCKIYAWPICGS (cysteine pairing not given here; also: biotinylated, site not given here) [Peptide-4], the IC50 with TBD-17 (HC S104A) [1] was found to be 2040 nM; with TBD-6 (LC I93A) [2] it was 400 nM; with TBD-21 (HC F108A) [3], 3300 nM; with TBD-11 (HC R98A) [4], 3240 nM; in the assay with TBD-1 wt [6] it was 460 nM; in the assay with TBD-22 (HC D109A) [5], 130 nM.

On to SYLVCVKNVYCWTA (cysteine pairing not given here; also: biotinylated, site not given here) [Peptide-29], for which the IC50 was 1110 nM with TBD-17 (HC S104A) [1]; 800 nM with TBD-6 (LC I93A) [2]; 1490 nM in the assay with TBD-21 (HC F108A) [3]; 9170 nM with TBD-11 (HC R98A) [4]; 920 nM with TBD-1 wt [6]; 33600 nM with TBD-22 (HC D109A) [5].

With MDFCQIYDWPICRL (cysteine pairing not given here; also: biotinylated (site not given here)) [Peptide-18], the IC50 with TBD-17 (HC S104A) [1] amounted to 7080 nM; with TBD-6 (LC I93A) [2], 6110 nM; with TBD-21 (HC F108A) [3], 7560 nM; with TBD-11 (HC R98A) [4], 3960 nM; with TBD-1 wt [6] it was 1270 nM; with TBD-22 (HC D109A) [5] it was 350 nM.

As for PDFCAVYRWPICYQ (cysteine pairing not given here; also: biotinylated (site not given here)) [Peptide-12], the IC50 with TBD-17 (HC S104A) [1] is 2230 nM; in the assay with TBD-6 (LC I93A) [2], 1460 nM; in the assay with TBD-21 (HC F108A) [3], 2240 nM; with TBD-11 (HC R98A) [4], 850 nM; with TBD-1 wt [6] it was 460 nM; with TBD-22 (HC D109A) [5], 70 nM.

For the molecule VDFCALYNWPVCAI (mask peptide for the TROP2 Fab) [Peptide-59], the IC50 was found to be 3490 nM with TBD-17 (HC S104A) [7]; 7550 nM with TBD-11 (HC R98A) [8]; 1940 nM in the assay with TBD-6 (LC I93A) [9]; 9640 nM with TBD-21 (HC F108A) [10]; 100 nM with TBD-22 (HC D109A) [11]; 3490 nM in assay [12].

As to VDFCALYHWPVCGL (mask peptide for the TROP2 Fab) [Peptide-61], the IC50 was found to be 1830 nM with TBD-17 (HC S104A) [7]; 12200 nM with TBD-11 (HC R98A) [8]; 1190 nM in the assay with TBD-6 (LC I93A) [9]; 7750 nM with TBD-21 (HC F108A) [10]; 260 nM in the assay with TBD-22 (HC D109A) [11]; 1830 nM in assay [12].

Take LDFCKIYDWPICHL (cysteine pairing not given here; also: biotinylated (site not given here)) [Peptide-14]: the IC50 with TBD-17 (HC S104A) [1] turned out to be 5720 nM; in the assay with TBD-6 (LC I93A) [2], 1540 nM; with TBD-21 (HC F108A) [3] it was 6920 nM; in the assay with TBD-11 (HC R98A) [4], 3420 nM; with TBD-1 wt [6] it was 2190 nM; in the assay with TBD-22 (HC D109A) [5] it was 190 nM.

On to VDFCELYRWPICNS (cysteine pairing not given here; also: biotinylated (site not given here)) [Peptide-13], for which the IC50 worked out at 2990 nM with TBD-17 (HC S104A) [1]; 970 nM with TBD-6 (LC I93A) [2]; 3200 nM in the assay with TBD-21 (HC F108A) [3]; 2680 nM in the assay with TBD-11 (HC R98A) [4]; 1010 nM with TBD-1 wt [6]; 200 nM with TBD-22 (HC D109A) [5].

Regarding PDFCYMYGWPICDS (cysteine pairing not given here; also: biotinylated, site not given here) [Peptide-32], the IC50 with TBD-17 (HC S104A) [13] came to 9440 nM; in the assay with TBD-6 (LC I93A) [14], 3290 nM; with TBD-21 (HC F108A) [15], 13200 nM; with TBD-11 (HC R98A) [16], 9930 nM; with TBD-1 wt [17], 4940 nM; with TBD-22 (HC D109A) [18], 330 nM.

Turning to VDFCKLYNWPVCQT (cysteine pairing not given here; also: biotinylated, site not given here) [Peptide-5], the half-inhibitory concentration (IC50) with TBD-17 (HC S104A) [1] turned out to be 1790 nM; with TBD-6 (LC I93A) [2] it was 1050 nM; in the assay with TBD-21 (HC F108A) [3], 7160 nM; in the assay with TBD-11 (HC R98A) [4], 7230 nM; with TBD-1 wt [6] it was 1590 nM; in the assay with TBD-22 (HC D109A) [5], 100 nM.

In the case of IDFCAMYQWPICDT (cysteine pairing not given here; also: biotinylated (site not given here)) [Peptide-1], the IC50 with TBD-17 (HC S104A) [1] came out at 1020 nM; in the assay with TBD-6 (LC I93A) [2] it was 350 nM; in the assay with TBD-21 (HC F108A) [3], 2890 nM; in the assay with TBD-11 (HC R98A) [4], 2490 nM; with TBD-1 wt [6], 780 nM; with TBD-22 (HC D109A) [5], 70 nM.

As for IDFCAMYHWPICDT (cysteine pairing not given here; also: biotinylated, site not given here) [Peptide-42], the IC50 with TBD-17 (HC S104A) [13] was determined as 590 nM; with TBD-6 (LC I93A) [14], 220 nM; with TBD-21 (HC F108A) [15] it was 940 nM; with TBD-11 (HC R98A) [16] it was 1210 nM; with TBD-1 wt [17] it was 300 nM; with TBD-22 (HC D109A) [18] it was 60 nM.

Take IDFCAVYKWPVCQV (cysteine pairing not given here; also: biotinylated (site not given here)) [Peptide-2]: the IC50 with TBD-17 (HC S104A) [1] was found to be 2080 nM; in the assay with TBD-6 (LC I93A) [2], 1100 nM; with TBD-21 (HC F108A) [3], 5880 nM; with TBD-11 (HC R98A) [4], 5850 nM; in the assay with TBD-1 wt [6], 2230 nM; with TBD-22 (HC D109A) [5] it was 160 nM.

As to IDFCAIYQWPVCRS (cysteine pairing not given here; also: biotinylated (site not given here)) [Peptide-10], the IC50 was 1520 nM with TBD-17 (HC S104A) [1]; 620 nM with TBD-6 (LC I93A) [2]; 2900 nM with TBD-21 (HC F108A) [3]; 4040 nM in the assay with TBD-11 (HC R98A) [4]; 1220 nM in the assay with TBD-1 wt [6]; 60 nM with TBD-22 (HC D109A) [5].

Regarding VDFCALYHWPICYQ (cysteine pairing not given here; also: biotinylated, site not given here) [Peptide-43], the IC50 with TBD-17 (HC S104A) [13] came out at 560 nM; with TBD-6 (LC I93A) [14], 440 nM; with TBD-21 (HC F108A) [15], 690 nM; in the assay with TBD-11 (HC R98A) [16], 770 nM; with TBD-1 wt [17] it was 300 nM; with TBD-22 (HC D109A) [18] it was 50 nM.

The IC50 is the concentration that gives 50% inhibition. Low values mean inhibition by little substance, high ones a need for much substance.
